Assay [1] deals with STM3605t (STM3605 residues 5-107, SeMet-labeled and reductively methylated) (Salmonella enterica serovar Typhimurium LT2). In words: crystal structure.
Assay [2] addresses STM3605f, full-length Se-labeled non-methylated variant (Salmonella enterica serovar Typhimurium LT2). In words: crystal structure.

In assay [1], “STM3605t (STM3605 residues 5-107, SeMet-labeled and reductively methylated) (domain or fragment)” came in with a stoichiometry N of 2.
As for “STM3605f, full-length Se-labeled non-methylated variant (natural protein)”, the stoichiometry N in assay [2] turned out to be 2.
